From patent publication US20240294650A1 (Alector, published 2024)

T1: recombinant murine MerTK extracellular domain (mouse, UniProt Q60805 19-497)
T1 construct: also called Mouse MerTK; murine MerTK ECD; not shown: polyHis or TEVS/Thrombin/murine IgG2a-Fc tag
T1 sequence: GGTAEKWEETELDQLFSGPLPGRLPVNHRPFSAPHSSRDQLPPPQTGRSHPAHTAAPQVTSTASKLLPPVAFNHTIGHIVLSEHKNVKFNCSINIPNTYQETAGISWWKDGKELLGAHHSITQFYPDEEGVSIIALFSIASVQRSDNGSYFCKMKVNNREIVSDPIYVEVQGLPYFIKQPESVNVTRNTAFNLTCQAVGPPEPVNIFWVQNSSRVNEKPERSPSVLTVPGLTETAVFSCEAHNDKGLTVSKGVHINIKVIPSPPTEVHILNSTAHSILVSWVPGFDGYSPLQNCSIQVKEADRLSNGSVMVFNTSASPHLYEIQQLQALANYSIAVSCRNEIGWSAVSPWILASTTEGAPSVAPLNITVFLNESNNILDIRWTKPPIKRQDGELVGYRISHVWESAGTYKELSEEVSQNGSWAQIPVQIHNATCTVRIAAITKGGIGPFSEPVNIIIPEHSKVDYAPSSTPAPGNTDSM

T2: MerTK N-terminal ECD Half-and-half chimera (human)
T2 construct: tested as culture supernatant; also called MerTK N-term half-and-half chimera; MerTK N-terminal ECD (NT-Ig1-Ig2) + Axl C-terminal ECD (FN1-FN2-JM)
T2 chain: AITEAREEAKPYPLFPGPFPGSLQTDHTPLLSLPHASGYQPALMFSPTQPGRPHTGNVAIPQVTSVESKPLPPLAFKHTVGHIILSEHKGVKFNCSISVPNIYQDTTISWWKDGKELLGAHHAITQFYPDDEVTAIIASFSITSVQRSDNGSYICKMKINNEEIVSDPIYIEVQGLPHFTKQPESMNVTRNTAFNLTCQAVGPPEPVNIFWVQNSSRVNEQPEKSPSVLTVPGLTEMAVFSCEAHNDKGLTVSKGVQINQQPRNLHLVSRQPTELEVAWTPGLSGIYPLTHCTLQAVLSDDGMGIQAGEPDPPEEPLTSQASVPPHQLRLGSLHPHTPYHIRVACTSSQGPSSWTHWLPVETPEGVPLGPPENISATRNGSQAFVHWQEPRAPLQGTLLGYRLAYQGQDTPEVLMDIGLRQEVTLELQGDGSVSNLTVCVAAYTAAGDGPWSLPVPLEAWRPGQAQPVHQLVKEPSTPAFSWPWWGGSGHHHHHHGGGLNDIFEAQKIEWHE


Experiments:
[1] = target: T1, recombinant murine MerTK extracellular …; test: SPR Carterra LSA, Ab immobilised
Method in brief: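 Surface plasmon resonance on a Carterra LSA measured affinity of immobilized antibodies for human, cynomolgus or mouse MerTK ectodomain diluted in HBS-TE with 0.5 mg/ml BSA. Analytes flowed over the full array, surfaces were regenerated with Protein A/G Elution Buffer plus 1M NaCl or 10 mM Glycine pH 2.5, and spots binding under 25 RU were discarded before kinetic fitting.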

[2] = target: T1, recombinant murine MerTK extracellular …; test: SPR Carterra LSA
[3] = target: T2, MerTK N-terminal ECD Half-and-half …; test: SPR, construct supernatant over immobilised Ab
Procedure: Binding of anti-MerTK antibodies of the present disclosure to these domain-swapped chimera or deletion mutants was tested by Surface Plasmon Resonance (SPR) using Carterra LSA. Purified anti-MerTK antibodies were immobilized in duplicate on a HC30M chip (Carterra) by amine coupling, following the manufacturer's instructions (described previously).
Supernatants containing the constructs were diluted 1:1 with running buffer containing 0.5 mg/mL BSA (HBS-TE, Carterra; BSA, Sigma) and injected over the immobilized antibodies. The surface was regenerated with 10 mM Glycine pH2.0 after each construct injection. Sensorgrams were analyzed using Carterra Epitope software to identify patterns of construct binding. Loss of binding to MerTK constructs with domains deleted or swapped in from Axl and/or gain of binding to Axl constructs with MerTK domains swapped in were evaluated. Data from these studies were used to construct a domain binding map for anti-MerTK antibodies and their binding to various domains of human MerTK.

Row | Binder | Kd [1] [nM] | Ratio of KD for Mouse vs Human MerTK [2] [ratio] | binding result [3] | binding result [1]
1 | MTK-213 (antibody, human IgG1, V domains shown) VH: QVQLQQPGAELVKPGASVKMSCKASGYTFTSYWITWVKQRPGQGHEWIGEIYPGIGSTNYNEKFKSKATLTVDTSSRTAYMQLSSLTSEDSAVYFCARGAYTKYYFDYWGQGTTLTVSS VL: DIVMTQSHKFMSTSVGDRVSITCKASQDVGDAVAWYQQKPGQTPKLLIYWASTRHTGVPDRFTGSGSGTDFTLTISNVQSEDLADYFCQQYSSYLMYTFGGGTKLEIK | 4.8 | 0.08 |  | 
2 | MTK-221 (antibody, human IgG1, V domains shown) VH: QVTLKESGPGMLQSSQTLSLTCSFSGFSLSTSGMGVSWIRQPSGKGLEWLAHIYWDDDKRYNTSLQSRLTISKDTSRNQVFLKITSVDTADTATYFCGRLGAYSAFPYYFDYWGQGTTLTVSS VL: DIQMTQSPSSLSASLGGKVTITCKASQDIHKHIAWYQHKPGKGPRLLIHYTSTLQPGIPSRFSGSGSGRDYSFSISNLEPEDLATYYCLQYDNLWTFGGGTKLEIK |  |  |  | no binding (tested: analyte up to 600 nM)
3 | MTK-208 (antibody, human IgG1, V domains shown) VH: QVQLQQPGAELVVPGASVRLSCKASGYTFINYWMHWVKQRPGQGLEWIGEIDPSDSYANYNQKFKDKSTLSLDKSSSTAYMQLSSLTSEDSAVYYCARCDYYGRLDYWGQGTTLTVSS VL: QVVLTQSPAIMSASPGEKVTITCSASSSVSYMLWFQQKPGTSPKLWIYSTSNLASGVPARFSGSGSGTSYSLTISRLEAEDAATYYCQQRSSYPPITFGAGTKLELK |  |  |  | no binding (tested: analyte up to 600 nM)
4 | MTK-219 (antibody, human IgG1, V domains shown) VH: QVQLQQSGADLMKPGASVKLSCKATGNTFTGYWIEWVKQRPGHGLEWIGEILTGSGSTNYNERFKGKATFTADTSSNTAYMQLSSLTTEDSAIYYCAGSYFTNSWFPYWGQGSLVTVSA VL: DIVLTQSPASLAVSLGQRATISCRASESVDSYGNSFMHWYQQKPGQPPKLLIYRAYTLESGIPARFSGSGSRTDFTLTINPVEADDVATYYCQQSNEDPRTFGGGTKLEIK |  |  | no binding | 
5 | MTK-212 (antibody, human IgG1, V domains shown) VH: QVQLQQSGPELVKPGASVKISCKASGYAFSSSWVNWVKQRPGKGLEWIGRIYPGDGDSNYNGNFKGKATLTADKSSNTAYLQLSSLTSEDSAVYFCARKSHFIYYTLDYWGQGTPVTVSS VL: DIVMTQSHKFKSTSVGDRVSIACKASQDVGTSVAWYQQKPGKSPKLLIYWASSRHTGVPDRFTGSGSGTDFTLTISNVQSEDLTDYFCQQYSTYPYTFGGGTKLEIK | 11 | 0.13 | no binding | 
6 | MTK-228 (antibody, human IgG1, V domains shown) VH: QDQLQQSGPELVKPGASVKISCKASGYSFTSYYIHWVKQRPGQGLEWVGWIFPGNGNTKYNERFKGKATLTADTSSSTAYMQLSSLTSEDSAVYYCARLGLIYALDYWGQGTSVTVSS VL: DAVMTQTPLSLPVSLGDQASISCRSSQSLENSNGNTYLHWYLQKPGQSPQLLIYRVSNRFSGVLDRFSGSGSGTDFTLKISRVEAEDLGVYFCLQVTHVPFTFGSGTKLEIK | 1.7 | 0.04 |  | 
7 | MTK-218 (antibody, human IgG1, V domains shown) VH: QVQLQQSGPELVKPGTSVKISCKASGYSFTSYYIHWVKQRPGQGLDWIGWIFPGNRNTQYNEKFKGKATLTADTSSSTAYMQLSSLTSEDSAVYYCARLGLIYALDYWGQGTSVTVSS VL: DAVMTQTPLSLPVSLGDQASISCRSSQSLENSNGHTYLHWYLQKPGQSPQLLIYRVSNRFSGVQDRFSGSGSGTDFTLKISRVEAEDLGVYFCLQVTHVPFTFGSGTKLEIK | 6.2 | 0.1 |  | 
8 | MTK-214 (antibody, human IgG1, V domains shown) VH: QVQLQQPGAELVKPGASVKVSCKASGYTFTNYWMHWMKQRPGQGLEWIGRIHPFDSDTNYNEKFTDKATLTVDKSSSTAYMQLSSLTSEDSAVYYCAIGTLIYWGQGTTLTASS VL: DILLTQSPATLSVTPGETVSLSCRASQSIYKKLHWFQQRSHRSPRLLIKFASDSISGIPSRFTGSGSGTDYTLSINSVKPEDEAIYYCLQGYSTPLTFGAGTKLELK | 320 | 32 | no binding | 

Continued, in another order:

Row | Kd [1] [nM] | Ratio of KD for Mouse vs Human MerTK [2] [ratio] | binding result [3] | Binder | binding result [1]
9 |  |  | no binding | MTK-222 (antibody, human IgG1, V domains shown) VH: QVQLQQSGADLMKPGASVKLSCKATGYTFTGYWIEWVKQRPGHGLEWIGEILTGSGSSNYNEKFKGKATFTADSSSNTAFMQLSSLTTEDSAIYYCAGSYYSNSWFPYWGQGSLVTVSA VL: DIVLTQSPVSLAVSLGQRATISCRASESVDSYGSSFMHWYQQKPGQPPKLLIYRASSLESGIPARFSGSGSRTDFTLTINPVETDDVATYYCQQSNEDPRTFGGGTKLEIK | 
10 |  |  | no binding | MTK-229 (antibody, human IgG1, V domains shown) VH: QVQLQQSGPELVKPGASVKISCKASGYEFSRSWMNWVKQRPGKGLEWIGRIYPGDGDTNYKGKLKGQATLTADKSSSTAYMQLSSLTFEDSAVYFCARGGGYYYDSRYEGFVYWGQGTVVTVSA VL: QIVLTQSPAIMSASPGEEVTMTCSASSSVSYMHWYQQKSGTSPKRWIYDTSKLASGVSGRFSGSGSGTSYSLTISSMEAEDAATYYCQQWSSNPPITFGAGTKLELK | 
11 | 1.8 | 0.05 |  | MTK-226 (antibody, human IgG1, V domains shown) VH: QVQLQQSGPELVKPGASVKISCKASGYSFTSYYIHWVKQRPGQGLEWIGWIFPGNGNTKYNENFRGKATLTADTSSSTAYMQLSSLTSEDSAVYYCARLGLIYALDYWGQGTSVTVSS VL: DAVMTQTPLSLPVSLGDQASISCRSSQSLESSNGNTYLHWYLQKPGQSPQLLIYRVSNRFSGVLDRFSGSGSGTDFTLQISRVEAEDLGVYFCLQVTHVPFTFGSGTKLEIK | 
12 |  |  | no binding | MTK-206 (antibody, human IgG1, V domains shown) VH: QVQLQQSGAELARPGASVKMSCKASGYTFTSYTMHWVKQRPGQGLEWIGYINPSSGYIKNSQKFKDKATLTADKSSSTAYMQLSSLTSEDSAVYYCARTVYGYYGSSPDYWGQGTTLTVSS VL: DIQMTQSPSSLSASLGERVSLTCRASQDIGSNLNWLQQEPDGTIKRLIYATSSLESGVPKRFSGSRSGSDYSLTISSLESEDFVDYYCLQYDSSPWTFGGGTKLEIK | no binding (tested: analyte up to 600 nM)
13 |  |  | no binding | MTK-210 (antibody, human IgG1, V domains shown) VH: QVQLQQSGPELVKPGASVKISCKASDYEFSRSWMNWVKQRPGKGLEWIGRIYPGDGDTNYNGKFKGKATLTADKSSNTAYMQLNSLTSEDSAVYFCARKGGYYYSISNYFDYWGQGTTLTVSS VL: QIVLTQSPAIMSASPGVKVTMTCSASSSVSYMHWYQQKPGSSPRLLIYDTSNLASGVPVRFSGSGSGTSYSLTISRMEAEDAATYYCQQWSSYPPYTFGGGTKLEIK | no binding (tested: analyte up to 600 nM)
14 | 8.3 | 0.08 | no binding | MTK-227 (antibody, human IgG1, V domains shown) VH: EVKLVESGGGLVQPGGSLSLSCAASGFTFTDNYMTWVRQPPGKALEWLGFSRNKANGYTTEYSASVKGRFTISRDSSQSILYLQMNALRAEDSGTYYCARFPPHYYAGGYFDVWGTGTTVTVSS VL: DIQMTQSPASLSASVGETVTITCRASENIYSYLAWYQQKQGKSPQLLVYNAKTLAEGVPSRFSGSGSGTQFSLKINSLQPADFGSYYCQHYYRTPPTFGGGTKLEIK | 
